Source: the Human Domainome abundance scans (Beltran et al. 2025)

B1: POU domain, class 3, transcription factor 2, residues 356 to 411; numbered along this chain, P20265 (parent)
chain: KKRTSIEVSVKGALESHFLKCPKPSAQEITSLADSLQLEKEVVRVWFCNRRQKEKR

Variants of: B1
Assay: abundance fitness (aPCA) (normalised: wild type 0, dead -1); higher = more abundant; growth selection in yeast, the domain comes from the species named
Conditions: Homo sapiens

Abundance fitness, by site and new letter:
L38: P -0.969; I -0.191; S -0.924; Y -0.827; G -0.871; K -0.927; T -0.26; N -0.964
F47: S -0.871; G -0.698; E -0.672; I -0.751; V -0.784; C -0.937; Y -0.328; N -0.967; K -0.961; D -0.852; Q -1; L -0.722; A -0.92; M -0.43; P -0.941
V45: P -0.784; K -0.057; R -0.293; G -0.048; S 0.097; Q 0.061; M -0.101; Y -0.152; L -0.033; H 0.089; T 0.001; C -0.294; W -0.038; I 0.01; N -0.006; D 0.07; F -0.175
D34: S -0.041; R 0.244; M 0.01; G -0.1; W 0.153; P -0.719; Q 0.105; N 0.148; T 0.055; K 0.191; Y 0.184; E -0.023; V -0.04; L 0.098; H 0.212; F 0.031; A 0.082
V42: M -0.299; T -0.02; A -0.089; F -0.042; D 0.051; W -0.147; P -0.869; S -0.179; R -0.363; K -0.116; C -0.01; N -0.309; I -0.204; E 0.01; G -0.453; Q -0.136; H 0.081; Y 0.05
V43: P -0.891; Q -0.877; D -0.958; H -0.938; W -0.793; R -0.95; E -1.01; M -0.944; Y -0.955; A -0.615; L -0.361; I -0.197; S -0.985; T -0.841; G -0.906; N -0.889; K -0.909; C -0.547
L36: T -0.7; F -0.291; K -0.868; E -0.892; N -0.543; A -0.929; C -0.428; M -0.564; Q -1.25; G -0.866; D -0.842; I -0.7; W -0.545; P -0.608; Y -0.151; H -0.527; V -0.53; R -0.938
R50: M -0.545; F -1.05; V -1; A -0.35; H -0.583; Q -0.161; D -0.849; S -0.659; W -0.924; E -0.398; P -0.982; C -0.868; G -0.735; N -0.907
S35: Q 0.008; M -0.095; H -0.026; E 0.03; G -0.033; F -0.22; K 0.136; I -0.062; V -0.119; L -0.065; D 0.091; C -0.133; A -0.086; R 0.051; Y -0.115; P -0.961; N -0.125; T 0.026; W -0.113
R51: F -0.354; W -0.1; V -0.245; C -0.442; S -0.323; T -0.447; M -0.156; L 0.061; G -0.198; E -0.154; A -0.136; I -0.397; H -0.098; D -0.381; P -0.831; N -0.402
Q52: H -0.002; F -0.106; G -0.076; I -0.145; E 0.222; A 0.039; D 0.015
